Measured values as given in article PMC10190533, “Engineering Escherichia coli to Utilize Erythritol as Sole Carbon Source” (Advanced Science, 2022).

Target: the molecule itself
Experiment: SEC + native gel or EMSA

B1: eryD, erythritol-binding transcriptional repressor from Ochrobactrum spp. (natural protein)
chain: MADADDSLALRAAWLHFVAGMTQSAVAKRLGLPSVKAHRLIAKAVADGAVKVTIDGDITECIDLENRLADLYGLDYCEVAPDIGEEGLPLMALGHAGANFMRREIEHGDHEVIGIGHGRTLSAAVGYMPRVMANDLRFVSLLGGLTRNFAANPHDVMHRIAEKTGMPAYVMPVPFFANTAEDREVLLAQRGVTTVFDMGCRAELKIVGIGTVDAQAQLVTSGMIELGEVEEIANLGGVGEMLGHFFNANGQWLETALTGRTIAASVENADMSRIVALAGGLSKVDAIRAVLKSGRLYGLITDERTAKALIGQPNGK
notes: also called erythritol-responding genetic repressor eryD
**Q.** B1 was tested. Which “stoichiometry N” value did it give?
**A.** 4
